The record followed here is patent publication US20250277029A1, “CANNABINOID TYPE 1 RECEPTOR BINDING PROTEINS AND USES THEREOF” (AMGEN INC., priority 2022, published 2025).

The target of one test is T1, XCR1-SMALP-GFP.
T1 sequence (P46094 whole entry, species assumed, looked up): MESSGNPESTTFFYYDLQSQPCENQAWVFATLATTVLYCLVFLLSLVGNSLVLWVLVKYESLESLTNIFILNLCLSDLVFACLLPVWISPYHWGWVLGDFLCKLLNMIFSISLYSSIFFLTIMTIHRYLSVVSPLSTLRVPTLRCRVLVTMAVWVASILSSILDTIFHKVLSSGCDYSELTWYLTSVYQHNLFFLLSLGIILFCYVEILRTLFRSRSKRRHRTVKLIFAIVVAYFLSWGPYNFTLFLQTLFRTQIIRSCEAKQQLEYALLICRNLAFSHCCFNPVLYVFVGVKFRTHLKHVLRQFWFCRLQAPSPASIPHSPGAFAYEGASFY
The experiment in a line: flow cytometry, yeast-displayed Fab, 25 nM XCR1-SMALP-GFP, after background subtraction.

A further test deals with T2, XCR1-SMALP.
T2 sequence (P46094 whole entry, species assumed, looked up): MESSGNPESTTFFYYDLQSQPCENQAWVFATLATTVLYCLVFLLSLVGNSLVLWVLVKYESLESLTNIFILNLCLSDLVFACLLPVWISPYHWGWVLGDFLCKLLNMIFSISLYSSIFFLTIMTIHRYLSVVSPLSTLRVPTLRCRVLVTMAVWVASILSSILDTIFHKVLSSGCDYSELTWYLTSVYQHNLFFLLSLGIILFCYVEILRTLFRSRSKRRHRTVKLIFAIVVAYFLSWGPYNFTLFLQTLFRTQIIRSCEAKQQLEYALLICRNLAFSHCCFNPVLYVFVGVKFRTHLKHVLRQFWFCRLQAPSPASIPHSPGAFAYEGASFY
The experiment in a line: flow cytometry, yeast-displayed Fab, 50 nM XCR1 SMALP.

B1: LIBC680562-1 (yeast-displayed Fab) (Fab, V domains shown)
VH: QVQLQESGPGLVKPSQTLSLTCTVSGGSIRRGGDYWAWIRQHPGKGLEWIGHIYQTGSTNYNPRFKGRATISVNTYKNQFSLKLSSVTAADTAVYYCARNYDTLTGYSYYYYGMDVWGQGTTVTVSS
VL: DIQMTQSPSSLSASVGDRVTITCRASQSISSYLNWYQQKPGKAPKLLIYSARRLSSGVPSRFSGSGSGTDFTLTISSLQPEDFATYYCQQYAKSPITFGGGTKVEIKR
On to B1, for which the Relative binding fold change compared to LIBC528116 (Fab) with XCR1-SMALP-GFP worked out at 0.64 fold.

B2: LIBC680574-1 (yeast-displayed Fab) (Fab, V domains shown)
VH: QVQLQESGPGLVKPSQTLSLTCTVSGGSIRRGGDYWAWIRQHPGKGLEWIGHVYYTGSTKYNPSFKDRATISVNTYKNQFSLKLSSVTAADTAVYYCARNYDTLTGYSYYYYGMDVWGQGTTVTVSS
VL: DIQMTQSPSSLSASVGDRVTITCRASQSISSYLNWYQQKPGKAPKLLIYGARRLGSGVPSRFSGSGSGTDFTLTISSLQPEDFATYYCQQYSSLPVTFGGGTKVEIKR
As for B2, the Relative binding fold change compared to LIBC528116 (Fab) with XCR1-SMALP-GFP worked out at 0.56 fold.

B3: LIBC680800-1 (yeast-displayed Fab) (Fab, V domains shown)
VH: QVQLQESGPGLVKPSQTLSLTCTVSGGSIRRGGDYWAWIRQHPGKGLEWIGHIYQTGSTNYNPRFKGRATISVNTYKNQFSLKLSSVTAADTAVYYCARNYDTLTGYSYYYYGMDVWGQGTTVTVSS
VL: DIQMTQSPSSLSASVGDRVTITCRASQSISSYLNWYQQKPGKAPKLLIYSARALSSGVPSRFSGSGSGTDFTLTISSLQPEDFATYYCQQYRKFPLTFGGGTKVEIKR
Regarding B3, the Relative binding fold change compared to LIBC528116 (Fab) in the test with XCR1-SMALP-GFP stood at 0.47 fold.

B4: LIBC681594-1 (yeast-displayed Fab) (Fab, V domains shown)
VH: QVQLQESGPGLVKPSQTLSLTCTVSGGSIRRGGDYWAWIRQHPGKGLEWIGHIYQTGSTNYNPRFKGRATISVNTYKNQFSLKLSSVTAADTAVYYCARNYDTLTGYSYYYYGMDVWGQGTTVTVSS
VL: DIQMTQSPSSLSASVGDRVTITCRASQSISSYLNWYQQKPGKAPKLLIYKARKLSSGVPSRFSGSGSGTDFTLTISSLQPEDFATYYCQQFGSMPLTFGGGTKVEIKR
In the case of B4, the Relative binding fold change compared to LIBC528116 (Fab) with XCR1-SMALP-GFP was determined as 1.04 fold.

B5: LIBC681593-1 (yeast-displayed Fab) (Fab, V domains shown)
VH: QVQLQESGPGLVKPSQTLSLTCTVSGGSIRRGGDYWAWIRQHPGKGLEWIGHIYQTGSTNYNPRFKGRATISVNTYKNQFSLKLSSVTAADTAVYYCARNYDTLTGYSYYYYGMDVWGQGTTVTVSS
VL: DIQMTQSPSSLSASVGDRVTITCRASQSISSYLNWYQQKPGKAPKLLIYNARRLGSGVPSRFSGSGSGTDFTLTISSLQPEDFATYYCQQYRSSPVTFGGGTKVEIKR
As for B5, the Relative binding fold change compared to LIBC528116 (Fab) with XCR1-SMALP-GFP was found to be 0.72 fold.

B6: LIBC680812-1 (yeast-displayed Fab) (Fab, V domains shown)
VH: QVQLQESGPGLVKPSQTLSLTCTVSGGSIRRGGDYWGWIRQHPGKGLEWIGHVYQTGSTKYNPSFKDRATISVNTYKNQFSLKLSSVTAADTAVYYCARNYDTLTGYSYYYYGMDVWGQGTTVTVSS
VL: DIQMTQSPSSLSASVGDRVTITCRASQSISSYLNWYQQKPGKAPKLLIYSARRLSSGVPSRFSGSGSGTDFTLTISSLQPEDFATYYCQQYRSYPITFGGGTKVEIKR
For the molecule B6, the Relative binding fold change compared to LIBC528116 (Fab) with XCR1-SMALP-GFP came to 0.59 fold.

B7: LIBC673952-1 (Fab on yeast) (Fab, V domains shown)
VH: QVQLQESGPGLVKPSQTLSLTCTVSGGSIRRGGDYWSWIRQHPGKGLEWIGHVYYTGQTTYNPSFRGRVTISVNTYKNQFSLKLSSVTAADTAVYYCARDYDILTGYSYYYYGLDVWGQGTTVTVSS
VL: DIVMTQSPLSLPVTPGEPASISCRSSQSLLHRSGYNYLDWYLQKPGQSPQLLIYQGSNRASGVPDRFSGSGSGTDFTLKISRVEAEDVGVYYCRQARALPRTFGQGTKVEIKR
Regarding B7, in the test with XCR1-SMALP, the relative binding fold change compared to LIBC523797-1(Fab) is 0.59 fold.

B8: LIBC674200-1 (Fab on yeast) (Fab, V domains shown)
VH: QVQLQESGPGLVKPSQTLSLTCTVSGGSIRRGGDYWSWIRQHPGKGLEWIGHVYYTGQTAYNPNFRNRVRISVNTYKNQFSLKLSSVTAADTAVYYCARGYDVSGYSYYYYGMDVWGQGTTVTVSS
VL: DIVMTQSPLSLPVTPGEPASISCRSSQSLLHRSGYNYLDWYLQKPGQSPQLLIYLGSNRASGVPGRFSGSGSGTDFTLKISRVEAEDVGVYYCMQSLQTPRTFGQGTKVEIKR
With B8, the relative binding fold change compared to LIBC523797-1(Fab) in the test with XCR1-SMALP is 0.79 fold.

B9: LIBC674229-1 (Fab on yeast) (Fab, V domains shown)
VH: QVQLQESGPGLVKPSQTLSLTCTVSGGSIRRGGDYWSWIRQHPGKGLEWIGHIYQTGQTKYNPSFKGRVRISVNTYKNQFSLKLSSVTAADTAVYYCARGYDVSGYSYYYYGMDVWGQGTTVTVSS
VL: DIVMTQSPLSLPVTPGEPASISCRSSQSLLHRSGYNYLDWYLQKPGQSPQLLIYQGSNRASGVPDRFSGSGSGTDFTLKISRVEAEDVGVYYCMQSLQTPRTFGQGTKVEIKR
Consider B9, for which, in the test with XCR1-SMALP, the relative binding fold change compared to LIBC523797-1(Fab) was 0.8 fold.

B10: LIBC674090-1 (Fab on yeast) (Fab, V domains shown)
VH: QVQLQESGPGLVKPSQTLSLTCTVSGGSIRRGGDYWSWIRQHPGKGLEWIGHIYYAGSTAYNPNFRGRVRISVNTYKNQFSLKLSSVTAADTAVYYCARGYDTSGYSYYYYGLDVWGQGTTVTVSS
VL: DIVMTQSPLSLPVTPGEPASISCRSSQSLLHRSGYNYLDWYLQKPGQSPQLLIYQGSNRASGVPDRFSGSGSGTDFTLKISRVEAEDVGVYYCMQSLQTPRTFGQGTKVEIKR
Turning to B10, the relative binding fold change compared to LIBC523797-1(Fab) with XCR1-SMALP worked out at 0.74 fold.
